Measured values: article PMC7341897 (Nature cell biology, 2019)

Assays:
Survivin = Survivin (UniProt O15392); test: fluorescent peptide partitioning into ISB coacervates; conditions: reference: unmodified H3 peptide; sites T3
[1] = target: INCENP^1-58-Survivin-Borealin (ISB) complex, wild type (UniProt Q9NQS7 1-58; O15392 1-142; Q53HL2 1-280); test: partitioning of a fluorescent client into preformed coacervates
[2] = target: ISB complex lacking amino acids 139-160 of Borealin (UniProt Q9NQS7 1-58; O15392 1-142; Q53HL2 1-280, Δ139-160); test: as above

binding result [2] | Molecule | binding against the reference (Survivin) | binding result [1]
– | histone H3 (synthetic N-terminal peptide) (from UniProt P68431) H3pT3 peptide | stronger | –
binds | hSgo1^1-112 labeled with CF555 (domain or fragment, human, UniProt Q5FBB7 1-112, looked up, CF-555 label (Mix-n-Stain CF-555 labeling kit)) MAKERCLKKSFQDSLEDIKKRMKEKRNKNLAEIGKRRSFIAAPCQIITNTSTLLKNYQDNNKMLVLALENEKSKVKEAQDIILQLRKECYYLTCQLYALKGKLTSQQTVEPA | – | binds
